From patent publication US20220235139A1 (ROCHE DIAGNOSTICS OPERATIONS, published 2022)

Tests used:
[1] = molecular target: T1, SEQ ID NO 17: V-D-pY-K-N-I-H-L-E-K-K-pY-V-R-R; assay: CelluSpots peptide array, 15-mer CSF-1R peptides in duplicate
T1 sequence (peptide, phosphotyrosine (pY) at positions 3 and 12): VDYKNIHLEKKYVRR

[2] = molecular target: T2, SEQ ID NO 18: D-pY-K-N-I-H-L-E-K-K-pY-V-R-R-D; assay: as above
T2 sequence (peptide, phosphotyrosine (pY) at positions 2 and 11): DYKNIHLEKKYVRRD

[3] = molecular target: T3, SEQ ID NO 19: pY-K-N-I-H-L-E-K-K-pY-V-R-R-D-S; assay: as above
T3 sequence (peptide, phosphotyrosine (pY) at positions 1 and 10): YKNIHLEKKYVRRDS

[4] = molecular target: T4, SEQ ID NO 16: G-V-D-pY-K-N-I-H-L-E-K-K-pY-V-R; assay: as above
T4 sequence (peptide, phosphotyrosine (pY) at positions 4 and 13): GVDYKNIHLEKKYVR

[5] = molecular target: T5, SEQ ID NO: 14: E-G-G-V-D-pY-K-N-I-H-L-E-K-K-pY; assay: as above
T5 sequence (peptide, phosphotyrosine (pY) at positions 6 and 15): EGGVDYKNIHLEKKY

[6] = molecular target: T6, SEQ ID NO 21: N-I-H-L-E-K-K-pY-V-R-R-D-S-G-F; assay: as above
T6 sequence (peptide, phosphotyrosine (pY) at position 8): NIHLEKKYVRRDSGF

[7] = molecular target: T7, SEQ ID NO 20: K-N-I-H-L-E-K-K-pY-V-R-R-D-S-G; assay: as above
T7 sequence (peptide, phosphotyrosine (pY) at position 9): KNIHLEKKYVRRDSG

[8] = molecular target: T8, SEQ ID NO: 13: P-E-G-G-V-D-pY-K-N-I-H-L-E-K-K; assay: as above
T8 sequence (peptide, phosphotyrosine (pY) at position 7): PEGGVDYKNIHLEKK

[9] = molecular target: T9, SEQ ID NO 15: G-G-V-D-pY-K-N-I-H-L-E-K-K-pY-V; assay: as above
T9 sequence (peptide, phosphotyrosine (pY) at positions 5 and 14): GGVDYKNIHLEKKYV

[10] = molecular target: T10, human CSF-1R (Colony stimulating factor 1 receptor) (human, UniProt P07333 20-972, limits assumed); assay: Western blot of cell lysates: lane 2 NIH3T3 wt, lane 3 NIH 3T3+CSF1 K4, lane 4 NIH 3T3+CSF1 K8 [continued]
T10 construct: also called M-CSF receptor; c-fms

[11] = molecular target: T11, phosphorylated TtSlyD-CSF1R; assay: SPR (Biacore), antibody captured on anti-rabbit F(ab)2, analyte in solution, Langmuir fit, 25 C
T11 sequence (chain, tyrosines phosphorylated in vitro with Src (1-530) kinase; positions not stated): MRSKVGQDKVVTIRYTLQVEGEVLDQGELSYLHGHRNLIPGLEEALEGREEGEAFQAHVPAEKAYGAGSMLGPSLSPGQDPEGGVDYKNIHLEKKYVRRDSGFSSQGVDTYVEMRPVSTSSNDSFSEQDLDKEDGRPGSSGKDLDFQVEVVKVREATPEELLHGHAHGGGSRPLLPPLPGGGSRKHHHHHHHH

TtSlyD-CSF1R = molecular target: T12, TtSlyD-CSF1R; assay: SPR (Biacore), captured antibody, single injection of 300 nM analyte
T12 construct: also called 21 kDa TtSlyD-CSF1R protein
T12 chain: T11 sequence (chain, tyrosines phosphorylated in vitro with Src (1-530) kinase; positions not stated)
Procedure: A Biacore B3000 instrument (GE Healthcare) was used to kinetically assess the rabbit antibodies for kinetics and binding specificity for TtSlyD-CSF1R. A CMS series sensor was mounted into the system and was normalized in HBS-ET buffer (10 mM HEPES pH 7.4, 150 mM NaCl, 3 mM EDTA, 0.005% w/v Tween 20) according to the manufacturer's instructions. The sample buffer was the system buffer supplemented with 1 mg/ml CMD (Carboxymethyldextran, Sigma #86524). The system operated at 25° C. 10000 RU GAR<F(ab)2> (relative units of goat anti rabbit F(ab)2/Jackson Laboratories, cat. No. 100018) were immobilized according to the manufacturer's instructions using EDC/NHS chemistry on all flow cells. The sensor was saturated with 1M ethanolamine. The binding activity of the antibodies against the analytes were kinetically tested. […] Antibodies were captured by a 2 min injection at 10 μl/min of cell culture HEK supernatant diluted 1:2 in sample buffer. The flow rate was set to 100 μl/min. The analyte was injected at different concentration steps of 0 nM, 1.1 nM, 3.7 nM, 11.1 nM, […], 100 nM and 300 nM for 2 min. The dissociation was monitored for 5 min. Kinetic signatures were monitored and evaluated using the Biaevaluation Software and a binary Langmuir Fitting model with RMAX local. […]

T10 sequence (P07333 other isoform, or with tags, fused parts or gaps limits assumed): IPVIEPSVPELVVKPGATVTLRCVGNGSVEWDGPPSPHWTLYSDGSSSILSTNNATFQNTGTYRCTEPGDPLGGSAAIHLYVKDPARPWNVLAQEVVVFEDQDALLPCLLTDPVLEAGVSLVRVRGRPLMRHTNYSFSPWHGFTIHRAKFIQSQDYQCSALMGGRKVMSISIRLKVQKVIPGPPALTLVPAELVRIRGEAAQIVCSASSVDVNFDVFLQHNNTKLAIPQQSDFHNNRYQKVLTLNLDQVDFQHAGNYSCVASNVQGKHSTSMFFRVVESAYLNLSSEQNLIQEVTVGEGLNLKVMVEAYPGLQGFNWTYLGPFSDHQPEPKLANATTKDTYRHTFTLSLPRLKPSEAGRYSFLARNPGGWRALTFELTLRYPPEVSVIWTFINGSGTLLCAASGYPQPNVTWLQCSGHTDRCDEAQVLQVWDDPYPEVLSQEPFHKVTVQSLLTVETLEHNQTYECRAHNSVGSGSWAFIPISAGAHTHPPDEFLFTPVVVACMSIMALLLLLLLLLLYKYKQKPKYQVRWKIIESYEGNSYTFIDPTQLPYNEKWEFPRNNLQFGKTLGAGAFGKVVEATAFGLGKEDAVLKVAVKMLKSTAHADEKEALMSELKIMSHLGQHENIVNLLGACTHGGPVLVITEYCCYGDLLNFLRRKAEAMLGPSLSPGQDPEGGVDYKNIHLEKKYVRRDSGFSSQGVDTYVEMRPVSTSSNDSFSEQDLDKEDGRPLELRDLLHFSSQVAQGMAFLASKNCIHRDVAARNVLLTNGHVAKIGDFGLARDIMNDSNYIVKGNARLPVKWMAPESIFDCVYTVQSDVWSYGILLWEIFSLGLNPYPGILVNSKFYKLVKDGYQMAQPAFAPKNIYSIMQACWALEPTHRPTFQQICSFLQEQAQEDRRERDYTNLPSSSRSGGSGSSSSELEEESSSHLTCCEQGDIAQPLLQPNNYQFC

B1: antibody 1H11 (antibody, V domains shown)
VH: QSVEESGGRLVTPGTPLTLTCTASGFSLSRYWMTWVRQAPGKGLEYIGWIDRSGNTYFADWAKGRFTGSKTSTTRDLKITSPTTEDTATYFCGRGGQNNGYDLWGPGTLVTVSS
VL: AAVLTQTPSPVSAAVGGTVTISCQSSESVYSNNFLSWYQLKPGQRPRLLIYEASKVASGVPSRFSGSGSGTQFTLTISGVQCDDAATYYCAGGYDVSDDAFGGGTEVLVK
notes: Rabbit full length IgG made recombinantly in FreeStyle 293-F cells; For SPR it was captured from HEK culture supernatant on goat anti-rabbit F(ab)2; no sentence ties 1H11 to them directly; also called rabbit monoclonal anti-CSF-1R antibody
[1]
  % Signal: 91.8%
[2]
  % Signal: 49.8%
[3]
  % Signal: 62.6%
[4]
  % Signal: 73.9%
[5]
  % Signal: 55.3%
[6]
  % Signal: 45.7%
[7]
  % Signal: 48.9%
[8]
  % Signal: 100%
[9]
  % Signal: 57.1%
[10]
  binding result: binds
[11]
  Kd: 0.2 nM
  koff: 0.000122 s⁻¹
  kon: 578000 M⁻¹ s⁻¹
TtSlyD-CSF1R
  binding result: binds
